The values that follow come from patent US20100015637A1 (AbbVie / Abbott, published 2010).

The target in assay [1] is human PlGF-1 comprising amino acids 1-137 produced in human embryonic kidney cells (human) (UniProt P49763). Put plainly: Format 2 …, capture MAb264, detection Pb264; sFlt-1 307 pmol/L (ratio 10).
Assay [2] has the same target. Nature of the assay: Format 3 Quantikine ELISA, capture MAb264, detection Pb264; sFlt-1 307 pmol/L (ratio 10). (In general: In an ELISA, binding on a coated surface is turned into a signal by an enzyme label.)
Assay [3] shares this target. Put plainly: Format 2 …, capture MAb264, detection Pb264; sFlt-1 1227 pmol/L (ratio 40).
Assay [4] concerns the target T1, human PlGF-1 comprising amino acids 1-137 produced in human embryonic kidney cells (human, UniProt P49763 19-221).
T1 construct: Mature human PlGF-1 with 6xHis tag; also called HEK (1-137); full length HEK human PlGF-1 (1-137)
T1 sequence: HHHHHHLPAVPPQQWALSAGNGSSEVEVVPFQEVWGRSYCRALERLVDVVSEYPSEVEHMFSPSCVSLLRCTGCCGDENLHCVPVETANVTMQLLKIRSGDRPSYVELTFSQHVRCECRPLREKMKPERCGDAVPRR
Nature of the assay: … sandwich, capture MAb826, detection pAb264; antigen 1500 pg/mL.

For assay [5], the target named is recombinant human PlGF-1 (comprising amino acids 1-131) expressed in E. coli (R&D Systems) (human) (UniProt P49763). Nature of the assay: SPR (BIAcore 2000); MAb captured on anti-mouse IgG chip, antigen in solution; 1:1 fit with mass transport. A general note: In SPR one partner is held on a chip, and binding of the other changes the refractive index at the surface.

Assay [6] concerns the target T2, CHO human PlGF-1 fragment (comprising amino acids 17-131; ATCC PTA-8540) (human, UniProt P49763 35-221).
T2 sequence: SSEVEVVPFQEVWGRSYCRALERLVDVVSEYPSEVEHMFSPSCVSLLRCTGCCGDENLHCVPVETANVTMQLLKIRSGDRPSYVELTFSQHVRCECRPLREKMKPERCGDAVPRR
Described as above. Here is the method:
(§1) First, a ˜5,500 RU rabbit anti-mouse IgG Capture Biosensor was created by amine-coupling rabbit anti-mouse IgG antibody (BIAcore® International AB, a GE Healthcare company, Uppsala, Sweden) to a CM4 biosensor chip (BIAcore® International AB, a GE Healthcare company, Uppsala, Sweden) via EDC/NHS/Ethanolamine chemistry provided in an Amine Coupling Kit (BIAcore® International AB, a GE Healthcare company, Uppsala, Sweden). Human PlGF-1 monoclonal antibodies and human PlGF-1 antigens were diluted into a running buffer (hereinafter “Running Buffer”) composed of HBS-EP buffer (BIAcore® International AB, a GE Healthcare company, Uppsala, Sweden) spiked with 0.1% BSA and 0.1% CM-Dextran.
(§2) After equilibrating the rabbit anti-mouse IgG Capture Biosensor for 5 minutes at 5 μL/minute with Running Buffer, 5 to 10 μL of human PlGF-1 monoclonal antibody was injected over individual flow cells with one flow cell being left blank as a reference flow cell. The flow cells were washed for 6 minutes at 50 μL/minute with Running Buffer before injecting 150 μL of human PlGF-1 or human PlGF-1 fragment antigen at a […] concentration across the biosensor, which was immediately followed by 15 minutes of Running Buffer. The biosensor was regenerated with one 30 μL injections of 10 mM Glycine pH 1.7 (BIAcore® International AB, a GE Healthcare company, Uppsala, Sweden) at a flow rate of 10 μL/minute.

In assay [7] the target is T3, CHO-sourced human PlGF-1 (comprising amino acids 1-131; ATCC PTA-8537) (human, UniProt P49763 19-221, glycosylated (CHO-expressed)).
T3 sequence: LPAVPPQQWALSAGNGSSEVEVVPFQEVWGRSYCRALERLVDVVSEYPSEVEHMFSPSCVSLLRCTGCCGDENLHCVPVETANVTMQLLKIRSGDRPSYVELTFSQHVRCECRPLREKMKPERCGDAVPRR
The assay is described as above. The procedure: as §1, §2

The target of assay [8] is recombinant human PlGF-1 (comprising amino acids 1-131) expressed in E. coli (R&D Systems) (human) (UniProt P49763). Nature of the assay: … sandwich, capture MAb255, detection pAb264; antigen 750 pg/mL.
Assay [9] has the same target. Nature of the assay: … sandwich, capture MAb255, detection pAb264; antigen 60 pg/mL.
Assay [10] concerns the target T1, human PlGF-1 comprising amino acids …. Nature of the assay: … sandwich, capture MAb255, detection MAb826; antigen 0 pg/mL (blank). The method, boiled down: (§3)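 Human PlGF-1 antigen preparations, including recombinant forms expressed in CHO cells, were tested at 0 to 1500 pg/mL in a sandwich immunoassay. The capture antibody was a monoclonal anti-human PlGF-1 antibody immobilized on magnetic microparticles by passive coating and EDAC cross-linking. Detection used an acridinium ester-labeled monoclonal anti-human PlGF-1 antibody. Signal was recorded as chemiluminescent relative light units (RLU) at each antigen level.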

Assay [11] has as its target T4, human PlGF-1 fragment (comprising amino acids 17-131) produced in human embryonic kidney cells (human, UniProt P49763 35-221).
T4 sequence: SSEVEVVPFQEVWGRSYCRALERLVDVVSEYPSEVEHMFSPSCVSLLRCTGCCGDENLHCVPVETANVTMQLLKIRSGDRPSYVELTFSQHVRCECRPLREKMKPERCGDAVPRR
Described as above. The method, boiled down: as §3

Assay [12] addresses T5, CHO human PlGF-1 comprising amino acids 1-137 (human PlGF-1-His (1-131), CHO 6305) (human, UniProt P49763 19-221, N-glycans at N21 (completely glycosylated) and N89 (partially glycosylated)).
T5 construct: Mature human PlGF-1 with 6xHis tag (137 amino acids); also called CHO (1-137)
T5 sequence: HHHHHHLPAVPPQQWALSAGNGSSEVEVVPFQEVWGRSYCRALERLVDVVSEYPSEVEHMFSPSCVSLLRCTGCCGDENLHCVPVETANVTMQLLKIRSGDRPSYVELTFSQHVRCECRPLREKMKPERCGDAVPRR
The description is as above. The method, boiled down:
as §3

For assay [13], the target named is T2, CHO human PlGF-1 fragment (comprising …). The assay is described as above. In outline: as §3

The % Inhibition is the drop in the measured response relative to a control, in per cent. For the molecule “native sFlt-1, isolated from human placental tissue (from UniProt P17948 27-687) (receptor)”, the % Inhibition in assay [1] came to 81.8%; in assay [2] it was 32.6%; in [3], 92.9%. In addition, the PlGF-1 Measured in [1] turned out to be 143 pg/mL; in assay [2], 583 pg/mL; in [3] it was 55.5 pg/mL.

B1: monoclonal antibody 2-826-335 (produced by murine hybridoma cell line 2-826-335, ATCC PTA-8539) (antibody, mouse IgG1, V domains shown)
VH: QVQLKQSGPGLVQPSQSLSITCTVSGFSLTTYGIHWVRQSPGKGLEWLGVMWSGGDTDYDAAFISRLSISKDNSKSQVFFKMNSLQANDTGIYYCARYRFYGMDYWGQGTSVTVSS
VL: AIQMTQSSSSFSVSLGDRVTITCKASEDIYNRFAWYQQKPGNAPRLLISGAASLEAGVPSRFSGSGSGQDYTLSITSLQTEDVATYYCQQYWSTPWTFGGGTKLEIKR
notes: also called MAb826
The Kd is the constant that tells how readily two partners part at equilibrium. The koff is a measure of how fast the partners let go of each other. In general, kon refers to the rate constant with which the complex forms. B1 showed an RLU in [4] of 760000 RLU. Also, in assay [5], the Kd came out at 0.092 nM, the koff was found to be 0.000214 s⁻¹ and the kon turned out to be 2.34e+06 M⁻¹ s⁻¹. In addition, in assay [6], the Kd is 0.219 nM, the koff was determined as 0.000291 s⁻¹ and the kon was 1.33e+06 M⁻¹ s⁻¹. In assay [7], the Kd is 0.498 nM, the koff stood at 0.000325 s⁻¹ and the kon came out at 652000 M⁻¹ s⁻¹.

B2: monoclonal antibody 1-255-713 (produced by murine hybridoma cell line 1-255-713, ATCC PTA-8536) (antibody, mouse IgG2a, V domains shown)
VH: QVHLQQSGAELMKPGASVKISCKATGYTFSSYWIEWVKQRPGHGLEWIGEILPGSVSNNFNEKFKDKATLTADPSSNTAYIQVSSLTSEDSAVYYCARSTGFYYGGNYFDHWGQGTTLAVSS
VL: DVVMTQTPLSLPVSPGDQASISCRSSQSLVHSNGHTYLHWYLQKPGQSPKLLIYKVSNRFSGVPDRVSGSGSGTDFTLKISRVEAEDLGVYFCSQSTHVPPTFGGGTKLEIKR
notes: also called MAb255
B2: the Kd in assay [5] is 0.368 nM; in [6], 0.71 nM; in assay [7], 1.7 nM. Besides, the koff worked out at 0.000121 s⁻¹ in assay [5], 0.000129 s⁻¹ in [6] and 0.000123 s⁻¹ in [7]. The kon in assay [5] turned out to be 329000 M⁻¹ s⁻¹; in assay [6], 182000 M⁻¹ s⁻¹; in assay [7] it was 73000 M⁻¹ s⁻¹. The RLU in [8] came out at 1.32e+06 RLU; in assay [9] it was 161000 RLU; in assay [10] it was 6110 RLU; in [11], 5760 RLU; in [12] it was 6270 RLU; in assay [13], 5940 RLU.
